Results published in the supplement of paper PMC9170038.

These sequences were tested on K4 kissing-loop RNA reporter (assay: apparent KD of K4 kissing-loop reporter; higher = weaker reporter binding). Details: Eterna round: R107; input ligand: arginine 13.2 mM.
Procedure: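 RNA-MaP round R107: designed RNA switches with theophylline, tryptophan, arginine or FMN aptamers are transcribed on-chip within common flanks. They are titrated with a labelled K4 kissing-loop RNA reporter in RNA-MaP buffer (100 mM Tris pH 7.5, 80 mM KCl, 4 mM MgCl2), without ligand or with the indicated ligand. Median apparent KD per design.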
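Further: bound reporter read as fluorescence of individual clusters on recovered sequencing chips by microscopy, with normalized cluster intensities fitted with a binding model.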

Point of comparison: “GUGCGCGGUGCGGCCGCCACUCGGAUGCGAGUGAUGUUCGCGGGACGGACGCAAGUCCGUCAUUCGAGGACCGGGCAUGGCUGCA [#2 Same State - Tryptophan B Attempt #6 (HarryS)]”, “apparent KD of K4 kissing-loop reporter” value 196 nM. Against it:
- AAUGCGCAGGGAAGGAGCGCCGUCCAGUGAUGUUGGAGUUAAAUACCAGUGAUGUUGGUUAGGCAGGUAGGUCGCCCUAAAGCGC [Exclusion Arginine B GF 1] — 2.5-fold lower, 79.9 nM
- GGAGUUACCUGGGAUACCAGUCGGAGGCCCAGAGCUCGGAGUGAUGUUCUGGGAUGUUUCGGCCCUUGGCAGCUCUGGGUCUCCG [#2 Exclusion - Theophylline B Attempt #4 (HarryS)] — 2.3-fold higher, 452 nM
- UGAUACCAGACGGCCGCCACUGGGACCGGGAGUGAUGUUCCAAAUAAAAGAAGCUCGGCCGCCACUAGGACCGGGUCUGGUAUCU [TrypBX 21 #DoubleAptamer #SwitchBubble] — within 1.5-fold, 261 nM
- UGAUAGGACAGAAGGAGCGGAAGUGAUGUUUCCAAAUGGAUAAGGUGUCAAAAGACACCCUUCCAGGUAGGUCGCUGUCCUAUCU [ArgBX 14 #Palindromic #SwitchBubble #StaticStem] — 1.8-fold lower, 112 nM
- GCAGUGAUGUUGCGAAUCGGCCAUGAUGCAGAGGAUAUCGUGCCUUCGAGAAGGUUGUAUAGAGGAUACGAUACUAUUAAUGACG [Same State FMN A GF 6] — 1.8-fold higher, 356 nM
- AGAGUGAUGUUUUUUUGAAGUGAGUAAAGUCGAGGACCGGUACGGCCGCCACUCGAGUGAUGUUAGUGAUGUUGAUGUAGUGAUG [xxzmullin] — 2.8-fold lower, 69 nM
- AAACUUGCAGUGAUGUUGCAAGUAGGUGAUACCAGCAUCGAAAGAUGCCCUUGGCAGCACCAACACUGCAAGUAAGUAUCACCAA [(H1)-(H2)-(T1)-(T2)-(H)'-(T)'_Design1] — within 1.5-fold, 138 nM
- UACUAUAGUGAUGUUAUAGAUAAACCAGAUACCAGUGUGACAUAACACCCUUGGCAGCUGAUAAGGGAACAUAUGAAAACAUAUG [AstroSSTHeAED5.17] — 1.6-fold lower, 120 nM
- UUGAGCCGGACCGAAGUCCGGCUCUGCGAGCGAGGACCGGUACGGCCGCCACUCGGUGCAGUGAUGUUGCAUGGCCGCAAGGCCG [#2 Exclusion - Tryptophan A Attempt #8 (HarryS)] — within 1.5-fold, 286 nM
- AAAGAGUCACUCGAAGCUAUCGAAGAUAGGCGAGGACCGGUACGGCCGCCACUCGGAGUGAUGUUCCGAAGACUGUAAAAUAAAA [MatMod 12 - Jieux - Exclusion - Tryptophan A] — within 1.5-fold, 240 nM
- UGGAGUUGACGAAAAGUCAACUCCUGAGAUACCAGUGACGAAAGUCACCCUUGGCAGCUCACUGGCAGUGAUGUUGCACGAUAAA [KL-SSTheo-A1] — 3-fold lower, 66.1 nM
- UCACGAGUGAUGUUCGUCGCAAUCACCGAAGGAGCGGGCGAAAGCCCAGGUAGGUCGCGGUAGAAUAAUGAUUUUAUUCGAUUGC [Same State Arginine A GF 26] — 3.1-fold higher, 602 nM
- UCUGGUAUAUCUGAUACCAGAGUAUAGUAUCAAUUGCAUAUGGAGUGAUGUUCCAUACAACUCCCUUGGCAGCAGAUCUAUCUCU [Same State Theophylline B GF 24] — within 1.5-fold, 249 nM
- GUGCGCGCGGCGGCCGCCACUCGCAUGAGAGUGAUGUUCUCACCGUGACCGUAAGGUCGCGGUGUGAGGACCGGGCCGGGCUGCG [#2 Same State - Tryptophan B Attempt #24 (HarryS)] — 1.7-fold lower, 114 nM
- AAACCCAGUGAUGUUGGGAAUCAGUUGAGGGAGGAUAUUGGUAAUACAAGAAGGCCCGGCUGCGGGUGAUGUUCGCAUUAGGGCC [Exclusion FMN A GF17] — within 1.5-fold, 157 nM
- UGAUUGCCAGUGAUGUUGGCAGUUUCUGAAGGAGCGCGUGAAAACGCAGGUAGGUCGCAGAUUAGUGCCAAUUGAUCGAAAGAUC [KL-XArg-A4] — within 1.5-fold, 227 nM
- UUCCACCGAGAAGGAUAUUAUGCUGGACUUGUUUAAGUGUUAAAUAGUGAUGUUAUUUGAUCGGAAUAAGAAGGUCUCAAGUUGA [theeternabot_sameState_KL_FMN_B_44] — within 1.5-fold, 131 nM
- UUGUUUGGUUGAGAGGUUGGGCGAGAUGAUACCAGUAGAGAAGAGUACCCUUGGCAGCAUAGGAAAGAUAUAGUGAUGUUGUAUA [SSTheophA.Q] — 1.6-fold higher, 313 nM
- AAAUGCUUGUAUUUGAACAAUUCCUUUAGGGAGGAUAUUGGUAAUACAAGAAGGCCCUGAUGGGAGUGAUGUUCCCAUAACGCGG [Exclusion FMN A GF16] — 2.1-fold lower, 95 nM
- AAUAAAAGAUGUUUAGGAAAGCAAAUGGAAGGAGCGUGCGAAAGCACAGGUAGGUCGCCAGUGAUGUUGGCACCUGAGCAUCAAA [#SwitchBubble 18 #K4Late] — within 1.5-fold, 285 nM
- AAUUGGGACGAAGGAUAUUGUCGGCCAUGUACGAGGUCCGGAUGUCAUGACUGUUAGUGAUGUUAACAAGAAGGUCGAGGGAGAC [theeternabot_exclusion_KL_FMN_B_25] — 1.8-fold lower, 107 nM
- CUGAGCCUGACGUAAGUCAGGCUCUGCGAGCGAGGACCGGUACGGCCGCCACUCGGUGCAGUGAUGUUGCAUGGCCGCAAGGCCG [#2 Exclusion - Tryptophan A Attempt #19 (HarryS)] — within 1.5-fold, 246 nM
- AUCAUUGAGUGAUGUUCAAUGGGUUUUCCCAAGGAUAUUCGGAGCUGAAGAAGGUGGCCCUCGAUAUCAGUAUCAACCUGAAAGC [theeternabot_exclusion_KL_FMN_A_11] — 1.7-fold higher, 340 nM

Same assay, conditions: Eterna round: R107; input ligand: none

Point of comparison: “GAUUCUGUUCGAAAGAACGGAAUCACGGAAGGAGCGAGAGAAAUCUCAGGUAGGUCGCCGAAUUUUAGAUAGUGAUGUUAUCAUU [Arginine A K4 1]”, “apparent KD of K4 kissing-loop reporter” value 1080 nM. Against it:
- GUGCGGCUAGUGAUGUUGGUUGUGUGGGAAGGAGCGCAGAUUCAUGCAGGUAGGUCGCCCACACCUCUGAAAGGAGGCUAAUUCA [KL-SSArg-A16] — 3.4-fold lower, 315 nM
- AGAACUGUCUGAGAUACCAGCUAAGGAGUGAUGUUCCUAAGUCCACGAAAGUGGACUCAUAGCCCUUGGCAGCUCAGACAGUUCA [#24 K4 Theophylline B Same State] — within 1.5-fold, 815 nM
- UGUGUUUACCUGACUCAGUGAUGUUGAGAAGGAGCGUGCUAAAGCACAGGUAGGUCGCUCAACCUAAAUUCAGGUGAGCACUAAA — 3.5-fold lower, 312 nM
- AGAGUACGAAAGUACUCCUCUACACACUGACGAGGACCGGUACGGCCGCCACUCGAGUUGAGUGAUGUUCGACAGUGUGUAGAGA [Omei KL Tryp A SS C v1] — 42-fold lower, 25.6 nM
- GGGAAGAAGGCGGCCGCCACUGCAGAAGAGACAGAGAGGGAAGAAGAGGAGUGAUGUUCCAAGAACAGGACCGGGCCAAGAAGGG [whbob_SS_Tryp_B_t29] — 9.1-fold lower, 119 nM
- CCAUCGCUAUUCGAUACCAGUCUACGUAGGAAACUACGUCUGCAAAGGAGUGAUGUUCCAGACCCUUGGCAGCGAAUAGUGAUGG [Theophylline B K4 5] — within 1.5-fold, 792 nM
- AAUGCGCAGGGAAGGAGCGCCGUCCAGUGAUGUUGGAGUUAAAUACCAGUGAUGUUGGUUAGGCAGGUAGGUCGCCCUAAAGCGC [Exclusion Arginine B GF 1] — 12-fold lower, 92.1 nM
- GGAGUUACCUGGGAUACCAGUCGGAGGCCCAGAGCUCGGAGUGAUGUUCUGGGAUGUUUCGGCCCUUGGCAGCUCUGGGUCUCCG [#2 Exclusion - Theophylline B Attempt #4 (HarryS)] — 1.9-fold lower, 583 nM
- UGAUACCAGACGGCCGCCACUGGGACCGGGAGUGAUGUUCCAAAUAAAAGAAGCUCGGCCGCCACUAGGACCGGGUCUGGUAUCU [TrypBX 21 #DoubleAptamer #SwitchBubble] — 3.2-fold lower, 339 nM
- UGAUAGGACAGAAGGAGCGGAAGUGAUGUUUCCAAAUGGAUAAGGUGUCAAAAGACACCCUUCCAGGUAGGUCGCUGUCCUAUCU [ArgBX 14 #Palindromic #SwitchBubble #StaticStem] — 8.3-fold lower, 130 nM
- GCAGUGAUGUUGCGAAUCGGCCAUGAUGCAGAGGAUAUCGUGCCUUCGAGAAGGUUGUAUAGAGGAUACGAUACUAUUAAUGACG [Same State FMN A GF 6] — 1.5-fold lower, 714 nM
- AGAGUGAUGUUUUUUUGAAGUGAGUAAAGUCGAGGACCGGUACGGCCGCCACUCGAGUGAUGUUAGUGAUGUUGAUGUAGUGAUG [xxzmullin] — 12-fold lower, 90.9 nM
- AAACUUGCAGUGAUGUUGCAAGUAGGUGAUACCAGCAUCGAAAGAUGCCCUUGGCAGCACCAACACUGCAAGUAAGUAUCACCAA [(H1)-(H2)-(T1)-(T2)-(H)'-(T)'_Design1] — 8.4-fold lower, 128 nM
- UACUAUAGUGAUGUUAUAGAUAAACCAGAUACCAGUGUGACAUAACACCCUUGGCAGCUGAUAAGGGAACAUAUGAAAACAUAUG [AstroSSTHeAED5.17] — 8.2-fold lower, 132 nM
